Experiment [1] has as its target T1, LAG-3 on the cell surface of SEA-activated human PBMC (activated T cells) (human, UniProt P18627 23-525).
T1 sequence (looked up): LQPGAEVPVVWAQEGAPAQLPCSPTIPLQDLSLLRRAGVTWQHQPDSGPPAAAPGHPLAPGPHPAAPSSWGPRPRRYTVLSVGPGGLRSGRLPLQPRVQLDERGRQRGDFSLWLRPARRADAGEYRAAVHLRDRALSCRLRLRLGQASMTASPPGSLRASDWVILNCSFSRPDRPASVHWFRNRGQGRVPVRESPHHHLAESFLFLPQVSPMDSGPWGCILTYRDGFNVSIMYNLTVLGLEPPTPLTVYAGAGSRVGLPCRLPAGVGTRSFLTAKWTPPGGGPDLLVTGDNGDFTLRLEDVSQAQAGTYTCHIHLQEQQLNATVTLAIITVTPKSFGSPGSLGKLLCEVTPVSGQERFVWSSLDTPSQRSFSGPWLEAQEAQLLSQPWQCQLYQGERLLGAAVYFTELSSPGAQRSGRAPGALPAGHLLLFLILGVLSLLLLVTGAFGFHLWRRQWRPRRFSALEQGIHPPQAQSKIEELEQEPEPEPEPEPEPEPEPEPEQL
The experiment is described as follows: cell-based or functional assay.

For experiment [2], the target named is T2, full-length human LAG-3 on CHO-S cells (CHO-S-LAG-3) (human, UniProt P18627 23-525).
T2 construct: whole, on cells
T2 sequence (looked up): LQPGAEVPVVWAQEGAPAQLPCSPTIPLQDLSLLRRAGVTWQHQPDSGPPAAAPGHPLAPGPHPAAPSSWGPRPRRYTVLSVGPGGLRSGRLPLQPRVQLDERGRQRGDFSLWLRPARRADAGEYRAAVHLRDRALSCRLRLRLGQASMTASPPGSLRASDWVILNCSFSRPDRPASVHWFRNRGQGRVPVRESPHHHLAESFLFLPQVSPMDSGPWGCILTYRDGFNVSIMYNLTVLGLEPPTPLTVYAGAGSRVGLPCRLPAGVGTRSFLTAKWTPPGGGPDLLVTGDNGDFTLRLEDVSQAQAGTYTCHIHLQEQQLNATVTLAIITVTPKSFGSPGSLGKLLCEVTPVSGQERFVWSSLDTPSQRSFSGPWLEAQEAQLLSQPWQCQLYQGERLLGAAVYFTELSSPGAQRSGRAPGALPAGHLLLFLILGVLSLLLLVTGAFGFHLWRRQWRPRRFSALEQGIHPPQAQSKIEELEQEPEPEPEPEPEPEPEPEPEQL
The experiment is described as follows: flow cytometry, blocking of Biotin-FGL1-hFc (2 ug/ml) binding to CHO-S-LAG-3 cells.

For experiment [3], the target named is T3, recombinant LAG-3 (purchased from SinoBiological, Cat. No.: 16498-H08H) (human, UniProt P18627 23-450).
T3 construct: also called human LAG-3
T3 sequence (looked up): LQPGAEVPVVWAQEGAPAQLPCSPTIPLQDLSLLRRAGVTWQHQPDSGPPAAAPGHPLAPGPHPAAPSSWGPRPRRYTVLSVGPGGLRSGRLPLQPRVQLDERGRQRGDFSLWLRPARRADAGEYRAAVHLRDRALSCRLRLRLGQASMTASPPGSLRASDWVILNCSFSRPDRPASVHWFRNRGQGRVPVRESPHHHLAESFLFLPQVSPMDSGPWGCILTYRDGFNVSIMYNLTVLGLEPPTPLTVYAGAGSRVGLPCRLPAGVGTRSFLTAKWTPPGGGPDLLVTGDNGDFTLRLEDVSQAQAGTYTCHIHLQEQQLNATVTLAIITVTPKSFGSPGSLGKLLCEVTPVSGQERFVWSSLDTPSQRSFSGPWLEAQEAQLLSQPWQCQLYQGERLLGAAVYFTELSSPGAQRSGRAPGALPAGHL
Briefly: SPR (Biacore 8K), antibody captured on Protein A chip, recombinant LAG-3 as analyte.

Experiment [4] addresses T4, LAG-3-ECD-His (LAG-3 extracellular segment with His tag, purchased from Sino Biological Inc.) (UniProt P18627 23-450).
T4 construct: extracellular domain; not shown: His tag
T4 sequence (looked up): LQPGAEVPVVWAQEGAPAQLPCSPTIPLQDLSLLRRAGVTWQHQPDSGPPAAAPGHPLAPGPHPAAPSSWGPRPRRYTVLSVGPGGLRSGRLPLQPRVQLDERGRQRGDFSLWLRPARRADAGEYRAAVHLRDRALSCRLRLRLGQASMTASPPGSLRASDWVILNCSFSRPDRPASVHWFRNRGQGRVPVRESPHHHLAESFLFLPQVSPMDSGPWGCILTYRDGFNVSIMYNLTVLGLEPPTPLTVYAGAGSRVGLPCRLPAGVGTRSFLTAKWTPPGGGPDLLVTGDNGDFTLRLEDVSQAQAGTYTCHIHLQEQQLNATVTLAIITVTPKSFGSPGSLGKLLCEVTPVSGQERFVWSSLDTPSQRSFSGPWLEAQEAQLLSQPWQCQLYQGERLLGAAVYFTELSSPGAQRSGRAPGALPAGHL
The experiment is described as follows: ELISA, plate coated with LAG-3-ECD-His (10 ng/well), anti-human IgG (Fc) detection. On the technique in general: ELISA stands for enzyme-linked immunosorbent assay.

In experiment [5] the target is T1, LAG-3 on the cell surface of …. The experiment is described as follows: flow cytometry, biotinylated antibody on SEA-activated human PBMC, PE-Streptavidin detection. In general terms: Flow cytometry measures light scatter and fluorescence of single cells or particles in a stream.

B1: 5E7-Hu-IgG4 (antibody, V domains shown)
VH: EVQLVESGGGLVKPGGSLRLSCAASGFTFSDDYMAWFRQAPGKRLEWVASISHGGDYIYYADNLKGRFTISRDNAKNSLYLQMNSLRAEDTAVYFCSRDRRSIDYWGQGTLVTVSS
VL: DIQMTQSPSSLSASVGDRVTITCRASQDISNYLSWYQQKPGKTIKLLIYYTSRLHSGVPSRFSGSGSGTDYTFTISSLQPEDIATYFCQQGKTLPYTFGQGTKVEIKR
modifications: Biotinylated with NHS-biotin only for the flow cytometry of Example 7 (positions not defined).
notes: also called humanized antibody No. 5E7; 5E7-Hu-IgG4-HC + 5E7-Hu-LC
For B1, in experiment [1], the “EC50 of enhancing the secretion of IL-2 by SEA-stimulated PBMC (Fig. 3A)” value was 78.1 ng/mL and the “EC50 of enhancing the secretion of IL-2 by SEA-stimulated PBMC (Fig. 3B)” value worked out at 3.07 ng/mL. The IC50 (commonly the concentration that gives 50% inhibition) in experiment [2] stood at 0.0977 µg/mL. In addition, in experiment [3], the Kd (as a rule, the free concentration of one partner at which half of the binding sites on the other are occupied at equilibrium, for simple one-to-one binding) was determined as 4.17 pM; the koff (commonly a measure of how fast the partners let go of each other) turned out to be 1.84e-05 s⁻¹; the kon – broadly, a measure of how fast the partners come together – is 4.41e+06 M⁻¹ s⁻¹. It took 9.08 ng/mL to reach a half-maximal effect in experiment [4] (EC50). For the same molecule, in experiment [5], the EC50 (commonly the midpoint of the concentration-response curve) is 0.0531 µg/mL.

The values are drawn from patent EP3932948A1 (Sunshine Guojian Pharmaceutical (Shanghai) Co., Ltd., dated 2022).
